Results on two substances are retold here after article PMC9180478.

The target in one assay is Myc-PCNA (UniProt P12004). The experiment in a line: FLAG-immunoprecipitation, immunoblot. The conditions noted are these: transient co-expression with Myc-PCNA; parent: 1.00. In general terms: A western blot detects proteins with antibodies after separation by electrophoresis.
In a further assay the target is Myc-PCNA (C81R) (UniProt P12004). Briefly: FLAG-immunoprecipitation, immunoblot. Particulars: transient co-expression with Myc-PCNA (C81R); parent: 1.00.

With “FLAG-ATAD5 (812–1844) (from UniProt Q96QE3) 815SSQD818 to GGAA”, in the assay with Myc-PCNA, the ratio to parent is 0.91.
For “FLAG-ATAD5 (812–1844) (from UniProt Q96QE3) 815SSQD818 to GGAA; S824A; Q825A; D826A”, the ratio to parent with Myc-PCNA (C81R) stood at 0.91; with Myc-PCNA, 1.35.
